Experiment: soluble on expression in E. coli; label from the status in PepcDB or PDB records

| Sequence | soluble on expression in E. coli |
| --- | --- |
| MSDHFVSERQALILAQLRQSGRVLAQDLAQNFGVSEDTVRRDLREMAARGECLRVYGGALLSDSTTVPLKTRITEDADRKATLARAVVPLIEPGMVVFIDAGSTNLAIARAIPAGLNLTVVTNTPAIAADLTGRADIDLVLIGGKVDPAVGAAIDAMALRQLELMRPDLCVLGVCGVAAETGLSADVFEDAVFKRLACSASQRVIAAITTEKLGHKAAFHVHDFSPPLCLVLERDADRALVESLSAQGVDVYCGEDDAAPFSHGQVLEHHHHHH | soluble |
| MSDHQDGMKLEDIERQFLDVAQREGGLEAIQPTTGPLENEENLKSSTGGGGGEDDNDRKKRKRSRSRDRDTRRRSRSRDRGERRGGGGGGDRDRSRSRERRRGGGGRDEPRRRGGDDEARSRREPEPQKPREPKKYRFWDVPPTGFETTTPMEYKNMQAAGQVPRGSVQSAVPVVGPSVTCQSRRLYVGNIPFGCNEEAMLDFFNQQMHLCGLAQAPGNPILLCQINLDKNFAFIEFRSIDETTAGMAFDGINFMGQQLKVRRPRDYQPSQNTFDMNSRMPVSTIVVDSANKIFIGGLPNYLTEDQVKELLCSFGPLKAFSLNVDSQGNSKGYAFAEYLDPTLTDQAIAGLNGMQLGDKQLVVQLACANQQRHNTNLPNSASAIAGIDLSQGAGRATEILCLMNMVTEDELKADDEYEEILEDVRDECSKYGIVRSLEIPRPYEDHPVPGVGKVFVEFASTSDCQRAQAALTGRKFANRTVVTSYYDVDKYHNRQF | soluble |
| MSDLYRNKKILAPMVRAGRTPLRLLCLKYGADLCYTEEIVDKKLIEATRVVNEALGTIDYRNGDDIILRLAPEEKGRCILQIGTNSGEKAAKIAQIVGDDVAGIDVNMGCPKPFSIHCGMGAALLTQTEKIVDILTSLKSAAKVPVTCKIRVLDDPEDTLKLVQEIEKCRVSALGVHGRRRDERQPDKCRIDEIRDVAQAVQSIPVISNGLSDEIEQYSDFEKYQLLTETSSTMIARKALSTPSIFRREGCLDKYEDIRNFLELACQYDESYTMTKYVVQRILGADQEYDPRGKATVAAGSVLQICKAFGMEDVYDKWRDERKKKQSKKRARVDDDGVYNIEVSFPLKRLKNSVGFSPTPKMVLHDYCVETKIPKATYEVVKRDDKRFVATACIGDKKYRSGIGQPNLRMAEQVAALAALHGMNIRNLLVGNWEEE | not soluble |
| MSDMSEQSVEIASSQLGTKDFWDQRYELELKNFKQHGDEGEVWFGTSSETRIVKYLIDSKTGKDAKILDLGCGNGSVLRKLRSKGFQSLKGVDYCQKAVDLSAAASKAEREEEEDEELVDIEFEQLDITTPPADFFSSKFDVILDKGTWDAMSLSDEREARLKAYLGFLDNGLSAGGRFVIFSCNFTFDEMCSQFGGGGGSTSLEIVCEVPASHSFSFGGKQGVTSTGAVFRKKTL | not soluble |
| MSDVAETLDPLRLPLQGERLIEASAGTGKTFTIAALYLRLLLGLGGSAAFPRPLTVEELLVVTFTEAATAELRGRIRSNIHELRIACLRETTDNPLYERLLEEIDDKAQAAQWLLLAERQMDEAAVFTIHGFCQRMLNLNAFESGMLFEQQLIEDESLLRYQACADFWRRHCYPLPREIAQVVFETWKGPQALLRDINRYLQGEAPVIKAPPPDDETLASRHAQIVARIDTVKQQWRDAVGELDALIESSGIDRRKFNRSNQAKWIDKISAWAEEETNSYQLPESLEKFSQRFLEDRTKAGGETPRHPLFEAIDQLLAEPLSIRDLVITRALAEIRETVAREKRRRGELGFDDMLSRLDSALRSESGEVLAAAIRTRFPVAMIDEFQDTDPQQYRIFRRIWHHQPETALLLIGDPKQAIYAFRGADIFTYMKARSEVHAHYTLDTNWRSAPGMVNSVNKLFSQTDDAFMFREIPFIPVKSAGKNQALRFVFKGETQPAMKMWLMEGESCGVGDYQSTMAQVCAAQIRDWLQAGQRGEALLMNGDDARPVRASDISVLVRSRQEAAQVRDALTLLEIPSVYLSNRDSVFETLEAQEMLWLLQAVMTPERENTLRSALATSMMGLNALDIETLNNDEHAWDVVVEEFDGYRQIWRKRGVMPMLRALMSARNIAENLLATAGGERRLTDILHISELLQEAGTQLESEHALVRWLSQHILEPDSNASSQQMRLESDKHLVQIVTIHKSKGLEYPLVWLPFITNFRVQEQAFYHDRHSFEAVLDLNAAPESVDLAEAERLAEDLRLLYVALTRSVWHCSLGVAPLVRRRGDKKGDTDVHQSALGRLLQKGEPQDAAGLRTCIEALCDDDIAWQTAQTGDNQPWQVNDVSTAELNAKTLQRLPGDNWRVTSYSGLQQRGHGIAQDLMPRLDVDAAGVASVVEEPTLTPHQFPRGASPGTFLHSLFEDLDFTQPVDPNWVREKLELGGFESQWEPVLTEWITAVLQAPLNETGVSLSQLSARNKQVEMEFYLPISEPLIASQLDTLIRQFDPLSAGCPPLEFMQVRGMLKGFIDLVFRHEGRYYLLDYKSNWLGEDSSAYTQQAMAAAMQAHRYDLQYQLYTLALHRYLRHRIADYDYEHHFGGVIYLFLRGVDKEHPQQGIYTTRPNAGLIALMDEMFAGMTLEEA | soluble |
| MSDVSTSVQSKFARLAKKKENITYMKREQLTETDKDIAPVLDLKCKDVSAIMNKFKVLMEIQDLMFEEMRETLKNDLKAVLGGKATIPEVKNSENSSSRTEFQQIINLALQKTGMVGKIEGENSKIGDDNENLTFKLEVNELSGKLDNTNEYNSNDGKKLPQGESRSYEVMGSMEETLCNIDDRDGNRNVHLEFTERESRKDGEDEFVKEMREERKFQKLKNKEEVLKASREEKVLMDEGAVLTLAADLSSATLDISKQWSNVFNILRENDFEPKFLCEVKLAFKCDGEIKTFSDLQSLRKFASQKSSMKELLKDVLPQKEEINQGGRNYGIQEKRDKTLIDSKHRAGEITSDGLSFLFLKEVKVAKPEEMKNLETQEEEFSELEELDEEASGMEDDEDTSGLEEEEEEPSGLEEEEEEEASGLEEDEASGLEEEEEQTSEQDSTFQGHTLVDAKHEVEITSDGMETTFIDSVEDSESEEEEEGKSSETGKVKTTSLTEKKASRRQKEIPFSYLVGDSGKKKLVKHQVVHKTQEEEETAVPTSQGTGTPCLTLCLASPSKSLEMSHDEHKKHSHTNLSISTGVTKLKKTEEKKHRTLHTEELTSKEADLTEETEENLRSSVINSIREIKEEIGNLKSSHSGVLEIENSVDDLSSRMDILEERIDSLEDQIEEFSKDTMQMTKQIISKERQRDIEERSRSCNIRLIGIPEKESYENRAEDIIKEIIDENFAELKKGSSLEIVSACRVPSKIDEKRLTPRHILVKFWNSSDKEKIIRASRERREITYQGTRIRLTADLSLDTLDARSKWSNVFKVLLEKGFNPRILYPAKMAFDFRGKTKVFLSIEEFRDYVLHMPTLRELLGNNIP | soluble |
| MSEALETGDPSPPPPIVSENGKTYYYLNSQESQAPNTPSPQEVPPKKMTNLFESGPLVYEDVAADIEAVTERASRRHYENKMVVKNSREMFDNVNILPDGRYYCCLCNRPYKTHATLTAHLRGYHLRNESSCDEPGCNFLSFTDQEKKRHRRTHDKKKKERNSQESMVIHEKIQKAVRRLDYPGEDELRDHLNGSTEVQGTIRTMTKKGKIRYACLKCPHSVFNAYHAARHVEMHNDFPKNCFYCGEIRKGTVDLQVHYMRVHKHEGIRTFKCSVCHLRFTTTILFRDHVECENGCQNPEIRQDIYYGELPEGTIVDDLTQDRLQNFRKRQEIWKTMGQMVEEHRTDVHEEIVGESSVQAGDTTVFDGSRAFIQTPFGLKTALEVKNTSRFCPRSGKRTSDDDLMITNKKRERLEMAPNLHFHQDIIHRLPTSTTTQRQNNAFQNEYLRPPVSYGYDPLIGRYPDFQLMSQSSLPSSSASSSSYDPFATAVYQDSDRNPMQPNDQHICDMNNVGAYETANFGLDNSSDLVVNEATIASNLMVNEVEDEVFEELNKLDFVMPADDGNDNDDDLEEVFNFGNVA | not soluble |
| MSEDILPITISLAGEKDTIRLGEDLALALKPGDCLTLIGDLGAGKSTLARAFIRAMADEPDLEVPSPTFTIIQTYTTRIPVAHLDLYRLSDVSELDELGIDEMLEDGICLIEWPDIAAEVLPPAQTITLQLTHSGEGRVAVIEAPAQQKARLDRVFAIREFLAKNGRGDATRRFLSGDASTRAYETISTDGPDLILMDWRRPMRGAIVADGKTYAEIVHLAQDARSFVAIGDYLRNSGFRAPEILAADIDQGILLLEDLGREGVLAADGTPIEERYLQSVACLATLHQTPRPALLPMRDGSTYDIPSFDRQAMKIEVSLLVEWYLPHKRGKALTDGEKQDYYAIWDGLIDALAGCETGLLLRDFHSPNILWQAQNSGIGQVGLIDFQDAMIGPTAYDLASIVQDARVTIPPELQTRLMSHYLNSRKATPAFDEAAFLKAFAIMSAQRNCKLAGIWVRLLERDKKPGYMKHMPRTFRYLADALSHPELAPLREWCVRMGMDFNDLEHHHHHH | soluble |
| MSEELEYLKVLLYASQVEAQKLRKQKEEKDALLKTFQVKLEVEALGNLPAQRNLSEDISKREIQSLKKQVTVLKEEIGLEGSKLAIANAVQEQLKTDLADEKEKCRFTREVTKLYQMNIQLDQPSRDQVADYLQFEIRTVKEVLRQKEEELEKLMAENKYNYFENCAEKCRIQEETSAARREADLLRDEMKTLVKNMNAKSEELLGQLRDSTEKCEEMEIDCNIQLLELQKRHELLNYYASLG | not soluble |
| MSEFDELKYLTGFGNEHATSDPRVPDALPVGQNSPQKCSHGLYAEQLSGTAFTAPRSQNQRSWLYRIRPSVIHRPFEAMKENDQHWTNNFSSIPPNPNQYRWNPFPLPTKEGVTFVDNLYTVCGGGDVISRTGLAIHQFSCNASMEHTAMYNSDGDFLIVPQQGALEITTEFGRLLVNPQEIAVIPQGIRFSVAVRGPSRGYILEVYGTHFQLPDLGPIGANGLANPRDFEAPVAWFEDLDVEFTIINKYQGSWFQAKQGHSPFDVVGWHGNYVPYKYDLKKFMVINTVSFDHCDPSIFTVLTAPSVKHGTAIADFVIFPPRWGCADNTFRPPYYHRNCMSEYMGLITGCYEAKEGGFKPGGGSLHSMMTPHGPDFNCFEMASNADLKPQRVAEGTMSFMFESSLNMAITNWAVYQNVDKDYYKDWQPLKKHFTMPK | not soluble |
| MSEFHSEISTLSPAPLWQFFDKICSIPHPSKHEEALAQYIINWATEQGFDVRRDPTGNVFIKKPATPGMENKKGVVLQAHIDMVPQKNEDTDHDFTKDPIQPYIDGEWVTAKGTTLGADNGIGMASCLAVLASKDIKHGPIEVLLTIDEEAGMTGAFGLEAGWLEGDILLNTDSEQEGEVYMGCAGGIDGAMTFDIKRDAIPTGFVTRQLTLKGLKGGHSGCDIHTGRGNANKLLGRFLAGHAQELDLRLVEFRGGSLRNAIPREAFVTVAVPAENQEKLAELFNYYTELLKAELGKVETGIVTFNEEIVTESQAFTAADQQRFIAALNACPNGVMRMSDEIEGVVETSLNVGVITTEENKVTVLCLIRSLIDSGRSQVESMLRSVAELAGAQVEFSGAYPGWKPDADSEIMAIFRDMYEGIYGHKPNIMVIHAGLECGLFKEPYPNMDMVSFGPTIKFPHSPDEKVKIDTVQLFWDQMVALLEAIPEKALEHHHHHH | soluble |
| MSEIHAGGCHCGRLRYQFDAPLKDIAHCHCSICWRTSGATVVTWISVPLASFKWLTGSPAAYDSAATCVRYFCGNCGAHMALFTRNSPNEMDVTIATLDQPELAVPSRHIWIENRLPWLHLDEDLPGDEGEP | not soluble |
| MSEITASRPEVVNGHTDVICSTSIRHILAVRKSTLLQIDTLIRQLAEVSAMTESIRGKTALDWAMKQDFRCGCWLMEKPETAMKAITRNLDRELWRDLMQRSGMLSLMDAQTRDTWYRSLEYDNFPEISEANILSTFEQLHQNKDEVFERGVINVFKGLSWDYKTNSPCKFGSKIIVNNLVRWDRWGFHLITGQQTDRLVDLERMLHLFSGKPIPDNRENITIRLDGHIQSVQGKERYEDEMFIIKYFKKGSAHITFKRLELIDRINDIIARYFPSVLSA | not soluble |

Reference: the DeepSol protein solubility set
